This test deals with 125I-PDGF plasma-binding protein of human plasma (about 280,000 mol wt) (human (endogenous in plasma)).

Drawing on publication PMC2112520, this text covers percent of added 125I-PDGF bound for one substance.

On to “125I-labelled human platelet-derived growth factor II (from UniProt P04085 87-211; P01127 82-190) (ligand)”, for which the percent of added 125I-PDGF bound fell in the range of 10 to 20%.
